From PMC7615752, “The histone chaperone SPT2 regulates chromatin structure and function in Metazoa” come the findings set out here.

The data set has as its target T1, HsSPT2 WT (Homo sapiens, UniProt Q68D10 1-685).
T1 sequence: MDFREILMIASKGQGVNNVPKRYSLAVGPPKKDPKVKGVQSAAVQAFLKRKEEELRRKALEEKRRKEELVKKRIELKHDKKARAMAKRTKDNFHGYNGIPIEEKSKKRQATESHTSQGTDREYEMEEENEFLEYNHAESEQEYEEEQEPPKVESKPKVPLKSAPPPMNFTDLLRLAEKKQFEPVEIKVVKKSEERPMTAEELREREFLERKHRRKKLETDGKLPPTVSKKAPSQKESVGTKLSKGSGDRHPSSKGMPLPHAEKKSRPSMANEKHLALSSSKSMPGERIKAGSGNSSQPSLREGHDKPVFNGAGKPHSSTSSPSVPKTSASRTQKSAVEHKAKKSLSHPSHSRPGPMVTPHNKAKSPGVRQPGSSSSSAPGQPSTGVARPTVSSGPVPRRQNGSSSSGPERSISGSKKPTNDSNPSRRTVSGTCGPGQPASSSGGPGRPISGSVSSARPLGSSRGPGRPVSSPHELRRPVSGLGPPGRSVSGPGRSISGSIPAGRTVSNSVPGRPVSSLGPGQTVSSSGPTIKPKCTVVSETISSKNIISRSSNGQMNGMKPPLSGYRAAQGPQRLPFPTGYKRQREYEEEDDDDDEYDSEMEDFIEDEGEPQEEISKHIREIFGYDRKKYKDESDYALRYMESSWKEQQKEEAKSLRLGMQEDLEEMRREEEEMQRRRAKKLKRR
The data set is described as follows: EMSA; 1 mM EDTA; 10 nM DNA; 25 mM Tris-HCl pH 8.0, 55 mM NaCl, 1 mM EDTA, 1 mM DTT, 0.1 mg/ml BSA, 1% glycerol, 37 C 15 min; native 8% PAGE. The settings on record: protein: recombinant; tags: His6; label: 5'-32P; four-way junction of 4 x 40 nt strands, each arm 20 bp. Background: Mobility shift assays separate free from complexed probe on a gel.

B1: synthetic cruciform DNA (four-way Holliday junction J3b/J3h/J3r/J3x(40)) (structured_DNA)
DNA 1: AGGGATCCGTCCTAGCAAGGGGCTGCTACCGGAAGCTTAC
DNA 2: GTAAGCTTCCGGTAGCAGCCTGAGCGGTGGTTGAATTCAC
DNA 3: GTGAATTCAACCACCGCTCAACTCAACTGCAGTCTAGAAC
DNA 4: GTTCTAGACTGCAGTTGAGTCCTTGCTAGGACGGATCCCT
Regarding B1, the binding result is given as “binds”.
